Measurements: doi:10.1101/403360

Columns and labels:
[1] = target: wild type GluN2A C-terminus peptide (…); experiment: SPR
[2] = target: wild type GluN2B C-terminus peptide (…); experiment: SPR

Kd [1]: 0.31 µM
Kd [2]: 250 µM
Substance: isolated FRMPD2 PDZ2 domain (from UniProt A0A140LI67 934-1027) (domain or fragment)
